From patent publication US20220380407A1 (WASHINGTON UNIVERSITY, published 2022)
Read-outs that look alike come from different tables or passages of the source. Positions of bridges follow the written chain, without caps; N, C: chain ends. Non-standard residues stand in square brackets, D forms with d. Primed or numbered codes have the meaning given here. *: point of attachment. X5 = 1‑acetyl‑4‑phenethylpiperidin‑4‑yl carbamate, CC(=O)N1CCC(CCc2ccccc2)(OC(=O)*)CC1; X4 = 1‑(phenylsulfonyl)piperidin‑4‑yl carbamate, O=C(OC1CCN(S(=O)(=O)c2ccccc2)CC1)*; X2 = 1‑(ethylsulfonyl)piperidin‑4‑yl carbamate, CCS(=O)(=O)N1CCC(OC(=O)*)CC1; X3 = 4‑benzylpiperidin‑4‑yl carbamate, O=C(OC1(Cc2ccccc2)CCNCC1)*; X1 = 4‑phenylpiperidin‑4‑yl carbamate, O=C(OC1(c2ccccc2)CCNCC1)*; kbt″ = ketobenzothiazole (C-terminal Arg), c1ccc2sc(*)nc2c1; kbt = C-terminal Arg ketobenzothiazole; Cha = N[C@@H](CC1CCCCC1)C(=O)O

Columns and labels:
Assay in all cases: cell-based or functional assay
[1] = target: T1, recombinant thrombin (#1473-SE-010, R&D Systems) (UniProt P00734 44-622)
[2] = target: T2, matriptase (#3946-SE-010, R&D Systems) (UniProt Q9Y5Y6 615-855)
T2 sequence (looked up): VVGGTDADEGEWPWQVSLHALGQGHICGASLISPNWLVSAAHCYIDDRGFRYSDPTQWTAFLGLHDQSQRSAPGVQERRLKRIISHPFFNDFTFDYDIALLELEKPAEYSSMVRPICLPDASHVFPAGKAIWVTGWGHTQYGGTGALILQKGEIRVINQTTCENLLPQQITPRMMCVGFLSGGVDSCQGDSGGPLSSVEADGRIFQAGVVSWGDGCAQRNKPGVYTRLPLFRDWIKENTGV

[3] = target: T3, activated hepsin (#4776-SE-010, R&D Systems) (UniProt P05981 45-417, limits assumed)
T3 sequence (P05981 45-417 limits assumed): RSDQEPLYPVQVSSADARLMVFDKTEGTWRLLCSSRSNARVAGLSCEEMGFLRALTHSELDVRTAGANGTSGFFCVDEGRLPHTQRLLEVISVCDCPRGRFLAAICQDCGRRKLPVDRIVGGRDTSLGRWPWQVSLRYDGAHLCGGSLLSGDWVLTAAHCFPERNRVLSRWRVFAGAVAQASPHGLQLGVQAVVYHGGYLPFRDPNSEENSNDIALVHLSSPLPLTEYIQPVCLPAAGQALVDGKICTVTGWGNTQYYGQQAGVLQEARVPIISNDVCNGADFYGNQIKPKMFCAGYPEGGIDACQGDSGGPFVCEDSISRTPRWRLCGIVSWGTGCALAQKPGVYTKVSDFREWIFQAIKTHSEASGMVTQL

[4] = target: T4, recombinant N-terminal His-tag HGFA serine protease domain (UniProt Q04756 373-655)
T4 sequence (looked up): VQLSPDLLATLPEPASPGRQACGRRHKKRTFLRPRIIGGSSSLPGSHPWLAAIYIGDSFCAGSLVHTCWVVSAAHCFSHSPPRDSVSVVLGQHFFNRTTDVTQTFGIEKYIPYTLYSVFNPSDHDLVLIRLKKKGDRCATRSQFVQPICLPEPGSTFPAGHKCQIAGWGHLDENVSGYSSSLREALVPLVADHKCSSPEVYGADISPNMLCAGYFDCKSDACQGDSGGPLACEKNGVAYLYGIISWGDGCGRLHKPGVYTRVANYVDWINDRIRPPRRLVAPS

[5] = target: T5, Factor Xa (#1063-SE-010, R&D Systems) (UniProt P00742 41-488, limits assumed)
T5 sequence (P00742 41-488 limits assumed): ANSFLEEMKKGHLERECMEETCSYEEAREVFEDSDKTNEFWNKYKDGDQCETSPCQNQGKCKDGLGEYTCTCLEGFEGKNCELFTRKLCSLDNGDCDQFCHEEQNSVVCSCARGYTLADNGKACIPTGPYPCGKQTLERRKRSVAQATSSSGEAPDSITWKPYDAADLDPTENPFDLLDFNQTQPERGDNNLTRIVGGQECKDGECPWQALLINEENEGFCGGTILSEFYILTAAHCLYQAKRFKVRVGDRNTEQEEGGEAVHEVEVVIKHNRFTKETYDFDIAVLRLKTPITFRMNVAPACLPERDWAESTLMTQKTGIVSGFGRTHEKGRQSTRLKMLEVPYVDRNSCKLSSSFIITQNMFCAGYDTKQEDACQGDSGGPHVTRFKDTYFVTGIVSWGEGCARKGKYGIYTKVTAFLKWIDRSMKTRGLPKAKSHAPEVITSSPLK

[6] = target: T2, matriptase (#3946-SE-010, R&D Systems); remark: listed apart in the source
[7] = target: T3, activated hepsin (#4776-SE-010, R&D …); remark: listed apart in the source
[8] = target: T4, recombinant N-terminal His-tag HGFA …; remark: listed apart in the source
human TMPRSS2 [9] = target: T6, human TMPRSS2 (human, UniProt O15393 1-492)
T6 sequence (O15393 whole entry): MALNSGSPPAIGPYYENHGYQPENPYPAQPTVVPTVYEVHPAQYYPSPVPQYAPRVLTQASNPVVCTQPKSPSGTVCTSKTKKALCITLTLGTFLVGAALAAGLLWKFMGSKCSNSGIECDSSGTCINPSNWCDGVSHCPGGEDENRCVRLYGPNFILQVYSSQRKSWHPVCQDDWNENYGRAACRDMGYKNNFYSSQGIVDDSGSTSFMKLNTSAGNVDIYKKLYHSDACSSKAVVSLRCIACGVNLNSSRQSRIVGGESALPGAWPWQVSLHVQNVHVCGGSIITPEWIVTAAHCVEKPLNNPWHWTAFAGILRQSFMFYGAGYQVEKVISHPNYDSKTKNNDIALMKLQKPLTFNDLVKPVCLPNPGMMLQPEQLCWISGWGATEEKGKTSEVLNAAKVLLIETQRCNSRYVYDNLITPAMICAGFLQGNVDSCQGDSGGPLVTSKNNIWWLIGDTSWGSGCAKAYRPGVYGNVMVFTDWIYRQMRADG

[10] = target: T7, KLK5 (#1108-SE-010, R&D Systems) (UniProt Q9Y337 23-293, limits assumed)
T7 sequence (looked up): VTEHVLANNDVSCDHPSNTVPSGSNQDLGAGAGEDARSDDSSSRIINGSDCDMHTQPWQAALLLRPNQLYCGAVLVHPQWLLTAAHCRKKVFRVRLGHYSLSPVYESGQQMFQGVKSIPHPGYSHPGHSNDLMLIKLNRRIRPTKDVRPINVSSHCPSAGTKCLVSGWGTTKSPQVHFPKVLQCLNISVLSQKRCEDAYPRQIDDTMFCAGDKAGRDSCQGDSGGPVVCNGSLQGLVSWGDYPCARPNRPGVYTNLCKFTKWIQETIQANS

human TMPRSS2 [11] = target: T6, human TMPRSS2; remark: listed apart in the source
[12] = target: T1, recombinant thrombin (#1473-SE-010, R&D …); remark: listed apart in the source
[13] = target: T2, matriptase (#3946-SE-010, R&D Systems); remark: listed apart in the source
[14] = target: T3, activated hepsin (#4776-SE-010, R&D …); remark: listed apart in the source
[15] = target: T4, recombinant N-terminal His-tag HGFA …; remark: listed apart in the source
[16] = target: T5, Factor Xa (#1063-SE-010, R&D Systems); remark: listed apart in the source

B1: Cyclo(DLK)R-kbt, VD2173 (peptide)
peptide: Ac-DLKR-kbt
modifications: lactam 1-3; not fully specified; printed as Cyclo(DLK)R-kbt; also: N-terminal acetyl described as 6-acetamido
[1]
  Thrombin* (IC50 nM): 700 nM
[2]
  Matriptase (IC50 nM): 0.28 nM
[3]
  Hepsin (IC50 nM): 8.4 nM
[4]
  HGFA (IC50 nM): 3590 nM
[5]
  Factor Xa* (IC50 nM): 564 nM
[6]
  Matriptase IC50: 1.4 nM
[7]
  Hepsin IC50: 10 nM
[8]
  HGFA IC50: 5260 nM
Human TMPRSS2 [9]
  Calu-3 EC50: 104 nM
[10]
  KLK5 IC50: 193 nM
Human TMPRSS2 [11]
  IC50, cell-based TMPRSS2 fluorogenic enzyme inhibition assay: 6.9 nM

## {phenyl(piperidin-4-yl)methyl carbamate}-Leu-Arg-kbt [phenyl(piperidin-4-yl)methyl Leu-Arg-kbt carbamate (11a)]
[12]
  Thrombin IC50: > 20000 nM
[13]
  Matriptase IC50: 1100 nM
[14]
  Hepsin IC50: 8 nM
[15]
  HGFA IC50: 14000 nM
[16]
  Factor Xa IC50: > 20000 nM

## X5-Leu-Arg-kbt [1-acetyl-4-phenethylpiperidin-4-yl Leu-Arg-kbt carbamate (8c)]
[12]
  Thrombin IC50: 7700 nM
[13]
  Matriptase IC50: 70 nM
[14]
  Hepsin IC50: 0.5 nM
[15]
  HGFA IC50: > 20000 nM
[16]
  Factor Xa IC50: 2000 nM

## X4-Leu-Arg-kbt [1-(phenylsulfonyl)piperidin-4-yl Leu-Arg-kbt carbamate (8f)]
[12]
  Thrombin IC50: > 20000 nM
[13]
  Matriptase IC50: 810 nM
[14]
  Hepsin IC50: 20 nM
[15]
  HGFA IC50: 8600 nM
[16]
  Factor Xa IC50: > 20000 nM

## X1-[Cha]-Arg-{kbt″} [4-phenylpiperidin-4-yl Cha-Arg-kbt carbamate (8d)]
[12]
  Thrombin IC50: > 20000 nM
[13]
  Matriptase IC50: 2100 nM
[14]
  Hepsin IC50: 90 nM
[15]
  HGFA IC50: > 20000 nM
[16]
  Factor Xa IC50: 9000 nM

## X2-Leu-Arg-kbt [1-(ethylsulfonyl)piperidin-4-yl Leu-Arg-kbt carbamate (8h)]
[12]
  Thrombin IC50: > 20000 nM
[13]
  Matriptase IC50: 730 nM
[14]
  Hepsin IC50: 10 nM
[15]
  HGFA IC50: > 20000 nM
[16]
  Factor Xa IC50: > 20000 nM

## X3-Leu-Arg-kbt [4-benzylpiperidin-4-yl Leu-Arg-kbt carbamate (8b)]
[12]
  Thrombin IC50: > 20000 nM
[13]
  Matriptase IC50: 30 nM
[14]
  Hepsin IC50: 0.6 nM
[15]
  HGFA IC50: 1200 nM
[16]
  Factor Xa IC50: 6500 nM

## X1-Leu-Arg-kbt
[12]
  Thrombin IC50: > 20000 nM
[13]
  Matriptase IC50: 90 nM
[14]
  Hepsin IC50: 5 nM
[15]
  HGFA IC50: 780 nM

## Ac-SKLR-{kbt-Val-NH2} [Ac-SKLR kbt V-amide, ZFH7116]
[6]
  Matriptase IC50: 11 nM
[7]
  Hepsin IC50: 0.5 nM
[8]
  HGFA IC50: 26 nM
Human TMPRSS2 [9]
  Calu-3 EC50: 307 nM
[10]
  KLK5 IC50: 137 nM
Human TMPRSS2 [11]
  IC50, cell-based TMPRSS2 fluorogenic enzyme inhibition assay: 51 nM
